Measurements: paper PMC5700162, “Structural insights into the committed step of bacterial phospholipid biosynthesis” (Nature Communications, 2017)

Experiments:
[1] = target: T1, aaPlsY (Aquifex aeolicus, UniProt O66905); parameters: gene plsY; conditions: 7.8 MAG LCP with 0.4 M Na2HPO4, pH 7.0; three phosphates from phosphate hole to phosphate clamp
[2] = target: T1, aaPlsY; assay: coupled MDCC-PBP Pi-biosensor fluorescence assay in lipid cubic phase (monoolein); assay type: biochemical; parameters: gene plsY; full length, 192 residues, monomer, codon-optimised gene, E. coli BL21(DE3); assays: C-terminal His8 tag (p3EC); crystals: C-terminal His-eGFP removed by 3C protease; DDM-purified, reconstituted in lipid cubic phase; conditions: co-substrate 30 mM glycerol phosphate; pH 8.0, 30 °C; 0-2 mol% 16:0-P in the lipid phase
[3] = substrate: O=P(O)(O)OC[C@H](O)CO; assay: as above; assay type: biochemical, Aquifex aeolicus; conditions: co-substrate 1.8 mol% 16:0-P, pH 8.0, 30 °C, 0-50 mM G3P
[4] = substrate: O=P(O)(O)OC[C@H](O)CO; assay: as above; assay type: biochemical, Aquifex aeolicus; conditions: co-substrate 3.3-5.2 mol% 16:0-P, pH 8.0, 30 °C, no technical replicates
Text: coupled MDCC-PBP Pi-biosensor fluorescence assay in lipid cubic phase (monoolein) on […]

Molecule	Km [4] [mM]	kcat [4] [s⁻¹]	other results
O=P(O)(O)O [Pi, inorganic phosphate]	–	–	X-ray crystal structure, 1.83 Å [1]: three phosphates are trapped in a positive patch stretching from the phosphate hole
CCCCCCCCCCCCCCCC(=O)OP(=O)(O)O [16:0-P, palmitoyl phosphate]	–	–	apparent Km [2]: 0.1 mol% (relative to monoolein)
aaPlsY (Aquifex aeolicus VF5) (protein, full length, 192 residues, monomer, codon-optimised gene, E. coli BL21(DE3); assays: C-terminal His8 tag (p3EC); crystals: C-terminal His-eGFP removed by 3C protease; DDM-purified, reconstituted in lipid cubic phase) MKALFLVIFAYLLGSITFGEVIAKLKGVDLRNVGSGNVGATNVTRALGKKYGVLVFFLDFLKGFIPALIAVKSFGIDSWVLTFTGLASVLGHMYPVFFGFKGGKGVATALGVVFAVSPSVALFSFLVWLGIFLWKRYVSLASITATISAFLFLFVAGYPVNVLFMAIVIGALIIYRHRENINRLLTGREHRF	–	–	Km [3]: 1.39 mM; kcat [3]: 13.4 s⁻¹
aaPlsY (Aquifex aeolicus VF5; H177A) (protein, full length, 192 residues, monomer, codon-optimised gene, E. coli BL21(DE3); assays: C-terminal His8 tag (p3EC); crystals: C-terminal His-eGFP removed by 3C protease; DDM-purified, reconstituted in lipid cubic phase) MKALFLVIFAYLLGSITFGEVIAKLKGVDLRNVGSGNVGATNVTRALGKKYGVLVFFLDFLKGFIPALIAVKSFGIDSWVLTFTGLASVLGHMYPVFFGFKGGKGVATALGVVFAVSPSVALFSFLVWLGIFLWKRYVSLASITATISAFLFLFVAGYPVNVLFMAIVIGALIIYRARENINRLLTGREHRF	9.24	0.88	–
aaPlsY (Aquifex aeolicus VF5; K104A) (protein, full length, 192 residues, monomer, codon-optimised gene, E. coli BL21(DE3); assays: C-terminal His8 tag (p3EC); crystals: C-terminal His-eGFP removed by 3C protease; DDM-purified, reconstituted in lipid cubic phase) MKALFLVIFAYLLGSITFGEVIAKLKGVDLRNVGSGNVGATNVTRALGKKYGVLVFFLDFLKGFIPALIAVKSFGIDSWVLTFTGLASVLGHMYPVFFGFKGGAGVATALGVVFAVSPSVALFSFLVWLGIFLWKRYVSLASITATISAFLFLFVAGYPVNVLFMAIVIGALIIYRHRENINRLLTGREHRF	6.58	1	–
aaPlsY (Aquifex aeolicus VF5; N37A) (protein, full length, 192 residues, monomer, codon-optimised gene, E. coli BL21(DE3); assays: C-terminal His8 tag (p3EC); crystals: C-terminal His-eGFP removed by 3C protease; DDM-purified, reconstituted in lipid cubic phase) MKALFLVIFAYLLGSITFGEVIAKLKGVDLRNVGSGAVGATNVTRALGKKYGVLVFFLDFLKGFIPALIAVKSFGIDSWVLTFTGLASVLGHMYPVFFGFKGGKGVATALGVVFAVSPSVALFSFLVWLGIFLWKRYVSLASITATISAFLFLFVAGYPVNVLFMAIVIGALIIYRHRENINRLLTGREHRF	3.04	2.49	–
aaPlsY (Aquifex aeolicus VF5; S35A) (protein, full length, 192 residues, monomer, codon-optimised gene, E. coli BL21(DE3); assays: C-terminal His8 tag (p3EC); crystals: C-terminal His-eGFP removed by 3C protease; DDM-purified, reconstituted in lipid cubic phase) MKALFLVIFAYLLGSITFGEVIAKLKGVDLRNVGAGNVGATNVTRALGKKYGVLVFFLDFLKGFIPALIAVKSFGIDSWVLTFTGLASVLGHMYPVFFGFKGGKGVATALGVVFAVSPSVALFSFLVWLGIFLWKRYVSLASITATISAFLFLFVAGYPVNVLFMAIVIGALIIYRHRENINRLLTGREHRF	13.75	0.64	–
aaPlsY (Aquifex aeolicus VF5; H92A) (protein, full length, 192 residues, monomer, codon-optimised gene, E. coli BL21(DE3); assays: C-terminal His8 tag (p3EC); crystals: C-terminal His-eGFP removed by 3C protease; DDM-purified, reconstituted in lipid cubic phase) MKALFLVIFAYLLGSITFGEVIAKLKGVDLRNVGSGNVGATNVTRALGKKYGVLVFFLDFLKGFIPALIAVKSFGIDSWVLTFTGLASVLGAMYPVFFGFKGGKGVATALGVVFAVSPSVALFSFLVWLGIFLWKRYVSLASITATISAFLFLFVAGYPVNVLFMAIVIGALIIYRHRENINRLLTGREHRF	2.64	2.37	–
aaPlsY (Aquifex aeolicus VF5; R45A) (protein, full length, 192 residues, monomer, codon-optimised gene, E. coli BL21(DE3); assays: C-terminal His8 tag (p3EC); crystals: C-terminal His-eGFP removed by 3C protease; DDM-purified, reconstituted in lipid cubic phase) MKALFLVIFAYLLGSITFGEVIAKLKGVDLRNVGSGNVGATNVTAALGKKYGVLVFFLDFLKGFIPALIAVKSFGIDSWVLTFTGLASVLGHMYPVFFGFKGGKGVATALGVVFAVSPSVALFSFLVWLGIFLWKRYVSLASITATISAFLFLFVAGYPVNVLFMAIVIGALIIYRHRENINRLLTGREHRF	50.46	0.15	–
aaPlsY (Aquifex aeolicus VF5; E189A) (protein, full length, 192 residues, monomer, codon-optimised gene, E. coli BL21(DE3); assays: C-terminal His8 tag (p3EC); crystals: C-terminal His-eGFP removed by 3C protease; DDM-purified, reconstituted in lipid cubic phase) MKALFLVIFAYLLGSITFGEVIAKLKGVDLRNVGSGNVGATNVTRALGKKYGVLVFFLDFLKGFIPALIAVKSFGIDSWVLTFTGLASVLGHMYPVFFGFKGGKGVATALGVVFAVSPSVALFSFLVWLGIFLWKRYVSLASITATISAFLFLFVAGYPVNVLFMAIVIGALIIYRHRENINRLLTGRAHRF	5.79	18.5	–
aaPlsY (Aquifex aeolicus VF5; N180A) (protein, full length, 192 residues, monomer, codon-optimised gene, E. coli BL21(DE3); assays: C-terminal His8 tag (p3EC); crystals: C-terminal His-eGFP removed by 3C protease; DDM-purified, reconstituted in lipid cubic phase) MKALFLVIFAYLLGSITFGEVIAKLKGVDLRNVGSGNVGATNVTRALGKKYGVLVFFLDFLKGFIPALIAVKSFGIDSWVLTFTGLASVLGHMYPVFFGFKGGKGVATALGVVFAVSPSVALFSFLVWLGIFLWKRYVSLASITATISAFLFLFVAGYPVNVLFMAIVIGALIIYRHREAINRLLTGREHRF	26.31	0.62	–
aaPlsY (Aquifex aeolicus VF5; S142A) (protein, full length, 192 residues, monomer, codon-optimised gene, E. coli BL21(DE3); assays: C-terminal His8 tag (p3EC); crystals: C-terminal His-eGFP removed by 3C protease; DDM-purified, reconstituted in lipid cubic phase) MKALFLVIFAYLLGSITFGEVIAKLKGVDLRNVGSGNVGATNVTRALGKKYGVLVFFLDFLKGFIPALIAVKSFGIDSWVLTFTGLASVLGHMYPVFFGFKGGKGVATALGVVFAVSPSVALFSFLVWLGIFLWKRYVSLAAITATISAFLFLFVAGYPVNVLFMAIVIGALIIYRHRENINRLLTGREHRF	2.89	4.29	–
aaPlsY (Aquifex aeolicus VF5; T41A) (protein, full length, 192 residues, monomer, codon-optimised gene, E. coli BL21(DE3); assays: C-terminal His8 tag (p3EC); crystals: C-terminal His-eGFP removed by 3C protease; DDM-purified, reconstituted in lipid cubic phase) MKALFLVIFAYLLGSITFGEVIAKLKGVDLRNVGSGNVGAANVTRALGKKYGVLVFFLDFLKGFIPALIAVKSFGIDSWVLTFTGLASVLGHMYPVFFGFKGGKGVATALGVVFAVSPSVALFSFLVWLGIFLWKRYVSLASITATISAFLFLFVAGYPVNVLFMAIVIGALIIYRHRENINRLLTGREHRF	0.43	0.64	–
